Data published in patent US20230346916A1.

Assays:
[1] = target: soluble human DPP4 (sDPP4) receptor (human) (UniProt P27487); assay: ELISA, RBD-Fc coated at 1 µg/ml, sDPP4 serially diluted
[2] = target: bat ACE2 (bACE2) receptor transiently expressed on 293T cells (bat)

Sequence of soluble human DPP4 (sDPP4) receptor (human) (P27487 39-766 limits assumed): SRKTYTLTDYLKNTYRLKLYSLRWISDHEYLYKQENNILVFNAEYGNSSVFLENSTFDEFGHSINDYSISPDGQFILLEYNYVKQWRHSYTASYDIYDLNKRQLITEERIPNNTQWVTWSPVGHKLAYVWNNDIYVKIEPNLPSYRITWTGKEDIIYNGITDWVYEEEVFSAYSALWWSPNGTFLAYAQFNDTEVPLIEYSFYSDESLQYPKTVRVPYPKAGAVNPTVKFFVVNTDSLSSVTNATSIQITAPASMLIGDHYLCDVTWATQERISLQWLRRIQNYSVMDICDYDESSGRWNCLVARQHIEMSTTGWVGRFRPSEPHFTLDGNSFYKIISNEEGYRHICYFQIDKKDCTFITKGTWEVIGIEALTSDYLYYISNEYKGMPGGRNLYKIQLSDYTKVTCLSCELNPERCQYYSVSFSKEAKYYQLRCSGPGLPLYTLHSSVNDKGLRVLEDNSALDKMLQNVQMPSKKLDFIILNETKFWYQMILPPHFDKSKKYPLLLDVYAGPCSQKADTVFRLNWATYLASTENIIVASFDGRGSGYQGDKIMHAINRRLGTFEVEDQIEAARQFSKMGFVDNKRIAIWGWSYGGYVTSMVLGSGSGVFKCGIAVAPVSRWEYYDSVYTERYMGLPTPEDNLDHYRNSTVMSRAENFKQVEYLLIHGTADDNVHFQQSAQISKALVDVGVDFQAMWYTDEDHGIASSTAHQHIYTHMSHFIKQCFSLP

Row | Substance | EC50 [1] | EC50 [2]
1 | MERS-CoV RBD-Fc fusion protein (residues 377-588 of MERS-CoV S protein with a C-terminal hFc) (from UniProt K9N5Q8 377-588) | 0.92 µg/mL | 
2 | SARS-CoV RBD-Fc fusion protein (residues 318-510 of SARS-CoV S protein with a C-terminal hFc) (from UniProt P59594 318-510) |  | 0.96 µg/mL
